Experimental findings from article PMC4705653, “Mcm10 coordinates the timely assembly and activation of the replication fork helicase” (Nucleic Acids Research, 2015) are described below.

The target in the assay is T1, PKA-Mcm3 (radiolabeled) (budding yeast, UniProt P24279 1-971, 32P label on the PKA tag (protein kinase A with [gamma-32P]-ATP)).
T1 construct: Mcm3, budding yeast; not shown: PKA tag, N-terminal, kept
Description: pull-down; 30 pmol GST-tagged protein on Glutathione Sepharose, varying concentrations of 32P-labelled PKA-tagged protein in solution; GST binding buffer (40 mM Tris–HCl pH 7.5, 100 mM NaCl, 0.1 mM EDTA, 10% glycerol, 0.1% Triton X-100, 1 mM DTT, 0.1 mg/ml BSA), 100 μl, 30°C, 10 min; SDS-PAGE and phosphorimaging; in some panels with 5 mM ATP or ATPγS, or with a third labelled protein (Mcm10, Sld3) added. The conditions noted are these: both partners purified.

T1 sequence (P24279 whole entry): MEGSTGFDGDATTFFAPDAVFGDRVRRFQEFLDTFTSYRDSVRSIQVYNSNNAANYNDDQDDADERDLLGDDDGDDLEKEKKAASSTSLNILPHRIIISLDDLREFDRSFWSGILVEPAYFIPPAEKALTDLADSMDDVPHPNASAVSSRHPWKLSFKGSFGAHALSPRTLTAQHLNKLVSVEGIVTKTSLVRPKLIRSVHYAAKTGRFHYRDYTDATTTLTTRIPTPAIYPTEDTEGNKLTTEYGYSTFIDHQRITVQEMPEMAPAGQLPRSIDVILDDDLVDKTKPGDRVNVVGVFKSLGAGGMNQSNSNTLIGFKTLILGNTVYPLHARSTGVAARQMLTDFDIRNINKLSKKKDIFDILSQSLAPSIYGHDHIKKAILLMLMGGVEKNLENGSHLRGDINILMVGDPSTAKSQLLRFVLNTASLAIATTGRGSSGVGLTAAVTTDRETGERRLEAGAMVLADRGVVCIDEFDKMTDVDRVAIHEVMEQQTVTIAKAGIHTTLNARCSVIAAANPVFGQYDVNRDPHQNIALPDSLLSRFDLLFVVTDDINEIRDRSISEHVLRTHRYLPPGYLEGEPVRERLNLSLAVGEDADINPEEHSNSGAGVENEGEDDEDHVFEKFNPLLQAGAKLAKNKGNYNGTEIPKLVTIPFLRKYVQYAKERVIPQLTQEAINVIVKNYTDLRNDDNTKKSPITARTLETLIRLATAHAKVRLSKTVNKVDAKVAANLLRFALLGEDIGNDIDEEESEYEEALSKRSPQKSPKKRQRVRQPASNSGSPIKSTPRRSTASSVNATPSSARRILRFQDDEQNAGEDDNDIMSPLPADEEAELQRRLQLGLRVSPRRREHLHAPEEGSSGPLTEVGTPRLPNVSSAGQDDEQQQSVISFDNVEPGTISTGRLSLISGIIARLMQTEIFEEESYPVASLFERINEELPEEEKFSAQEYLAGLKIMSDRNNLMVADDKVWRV

B1: GST-Mcm10 (natural protein, budding yeast, UniProt P32354 1-571, looked up)
chain: MNDPREILAVDPYNNITSDEEDEQAIARELEFMERKRQALVERLKRKQEFKKPQDPNFEAIEVPQSPTKNRVKVGSHNATQQGTKFEGSNINEVRLSQLQQQPKPPASTTTYFMEKFQNAKKNEDKQIAKFESMMNARVHTFSTDEKKYVPIITNELESFSNLWVKKRYIPEDDLKRALHEIKILRLGKLFAKIRPPKFQEPEYANWATVGLISHKSDIKFTSSEKPVKFFMFTITDFQHTLDVYIFGKKGVERYYNLRLGDVIAILNPEVLPWRPSGRGNFIKSFNLRISHDFKCILEIGSSRDLGWCPIVNKKTHKKCGSPINISLHKCCDYHREVQFRGTSAKRIELNGGYALGAPTKVDSQPSLYKAKGENGFNIIKGTRKRLSEEEERLKKSSHNFTNSNSAKAFFDEKFQNPDMLANLDNKRRKIIETKKSTALSRELGKIMRRRESSGLEDKSVGERQKMKRTTESALQTGLIQRLGFDPTHGKISQVLKSSVSGSEPKNNLLGKKKTVINDLLHYKKEKVILAPSKNEWFKKRSHREEVWQKHFGSKETKETSDGSASDLEII
notes: Mcm10, budding yeast, full length PCR product in SpeI/XhoI sites of pET-41; source: cloned in pET-41 vector; not shown: GST, N-terminal, kept
In the case of B1, the binding result was “binds”.
